# From article doi:10.1101/2020.05.08.083964 (bioRxiv, 2020)
# B1: 4A8 (antibody, V domains shown)
# VH: EVQLVESGAEVKKPGASVKVSCKVSGYTLTELSMHWVRQAPGKGLEWMGGFDPEDGETMYAQKFQGRVTMTEDTSTDTAYMELSSLRSEDTAVYYCATSTAVAGTPDLFDYYYGMDVWGQGTTVTVSS
# VL: EIVMTQSPLSSPVTLGQPASISCRSSQSLVHSDGNTYLSWLQQRPGQPPRLLIYKISNRFSGVPDRFSGSGAGTDFTLKISRVEAEDVGVYYCTQATQFPYTFGQGTKVDIK
# Experiments:
# [1] = target: S-ECD of SARS-CoV-2 (cryo-EM sample) (SARS-CoV-2, Wuhan-Hu-1); test: cryo-EM structure
# [2] = target: T1, extracellular domain of the SARS-CoV-2 S protein (S-ECD) (SARS-CoV-2, Wuhan-Hu-1); test: cell-based or functional assay
# [3] = target: T1, extracellular domain of the SARS-CoV-2 …; test: BLI
binder,measurement,setting,value
B1,stoichiometry N,[1],3
same,"neutralization of live (authentic) SARS-CoV-2 in Vero-E6 cells, EC50",[2],0.607 µg/mL
same,Kd,[3],< 2.14 nM
